US20210324108A1 (Hoffmann-La Roche, published 2021)
One block for each binder: values may come before it.

How the values were obtained:
[1] = molecular target: T1, human 4-1BB on Jurkat-hu4-1BB-NFκB-luc2 reporter cells (human, UniProt Q07011 24-255); assay: cell-based or functional assay
[2] = molecular target: T1, human 4-1BB on Jurkat-hu4-1BB-NFκB-luc2 …; assay: cell-based or functional assay; remark: listed apart in the source
[3] = molecular target: T2, recombinant human CD40_ECD (human, UniProt P25942 21-193); assay: SPR Biacore T200, huCD40 ECD analyte, apparent KD
T2 construct: also called human CD40 extra cellular domain
Experimental: The capacity of the bispecific constructs to bind human CD40 was assessed by surface plasmon resonance (SPR). […] Bulk refractive index differences were corrected by subtracting the response obtained from a goat anti human F(ab′)2 surface. Blank injections are also subtracted (=double referencing). For calculation of apparent KD and other kinetic parameters the Langmuir 1:1 model was used. The apparent Kd was calculated using the Biacore™ B4000 evaluation software (version 1.1).

recombinant human FAP = molecular target: T3, recombinant human FAP (human, UniProt Q12884 26-760); assay: SPR, huFAP captured (anti-His), Ab analyte
T3 construct: exact construct not described; also called FAP ECD; not shown: The histidine tag (and any linker to it) implied by capture on an anti-histidine antibody
Experimental: Around 12000 resonance units (RU) of the capturing system (15 μg/ml anti-histidine antibody; Order Code: 28995056; GE Healthcare Bio-Sciences AB, Sweden) were coupled on a CMS chip (GE Healthcare BR-1005-30) at pH 4.5 by using an amine coupling kit supplied by the GE Healthcare. Running buffer for Immobilization was HBS-N pH 7.4 (10 mM HEPES, 150 mM NaCl, pH 7.4, GE Healthcare). For the following kinetic characterization running buffer was PBS-P pH 7.4 (20 mM phosphate buffer, 2.7 mM KCl, 137 mM NaCl, 0.05% surfactant P20). The flow cell was set to 25° C.—and the sample block set to 12° C.—and primed with running buffer twice. […] The dissociation phase was monitored for up to 720 s and triggered by switching from the sample solution to running buffer. The surface was regenerated by washing with 10 mM Glycine pH 1.5 for 60 s at a flow rate of 30 μl/min. Bulk refractive index differences were corrected by subtracting the response obtained from an anti-histidine surface. Blank injections are also subtracted (=double referencing). For calculation of KD and kinetic parameters the Langmuir 1:1 model was used.

T1 sequence (Q07011 24-255 limits assumed): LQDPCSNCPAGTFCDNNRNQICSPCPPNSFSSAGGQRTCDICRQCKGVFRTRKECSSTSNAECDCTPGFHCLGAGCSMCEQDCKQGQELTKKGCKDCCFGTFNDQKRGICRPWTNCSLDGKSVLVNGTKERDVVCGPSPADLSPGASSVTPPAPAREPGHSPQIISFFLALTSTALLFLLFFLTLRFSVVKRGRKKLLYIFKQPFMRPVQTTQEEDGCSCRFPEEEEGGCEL

EC50 of NFκB-luciferase activation in Jurkat-hu4-1BB-NFκB-luc2 cells with NIH/3T3-huFAP clone 19 [1]: 0.321 nM
area under the curve (AUC) of NFκB-luciferase activation in Jurkat-hu4-1BB-NFκB-luc2 cells with NIH/3T3-huFAP clone 19 [2]: 15500
B1: anti-4-1BB (20H4.9) huIgG1 P329GLALA antibody (antibody, V domains shown)
VH: QVQLQQWGAGLLKPSETLSLTCAVYGGSFSGYYWSWIRQSPEKGLEWIGEINHGGYVTYNPSLESRVTISVDTSKNQFSLKLSSVTAADTAVYYCARDYGPGNYDWYFDLWGRGTLVTVSS
VL: EIVLTQSPATLSLSPGERATLSCRASQSVSSYLAWYQQKPGQAPRLLIYDASNRATGIPARFSGSGSGTDFTLTISSLEPEDFAVYYCQQRSNWPPALTFGGGTKVEIK

EC50 of NFκB-luciferase activation in Jurkat-hu4-1BB-NFκB-luc2 cells with NIH/3T3-huFAP clone 19 [1]: 0.701 nM
area under the curve (AUC) of NFκB-luciferase activation in Jurkat-hu4-1BB-NFκB-luc2 cells with NIH/3T3-huFAP clone 19 [2]: 13000
B2: anti-4-1BB (20H4.9) huIgG4 (antibody, V domains shown)
VH: B1 VH
VL: B1 VL

Kd [3]: 7.2 nM
koff [3]: 0.00681 s⁻¹
kon [3]: 945000 M⁻¹ s⁻¹
t 1/2 [3]: 1.7 min
Kd (recombinant human FAP): 8.31 nM
koff (recombinant human FAP): 0.000296 s⁻¹
kon (recombinant human FAP): 35600 M⁻¹ s⁻¹
t 1/2 (recombinant human FAP): 39.1 min
B3: FAP (4B9)-CD40 Contorsbody P1AE2052 (bispecific antibody, IgG1)
chain 1: not shown
chain 2: DIQMTQSPSSLSASVGDRVTITCRSSQSLVHSNGNTFLHWYQQKPGKAPKLLIYTVSNRFSGVPSRFSGSGSGTDFTLTISSLQPEDFATYFCSQTTHVPWTFGGGTKVEIKRTVAAPSVFIFPPSDEQLKSGTASVVCLLNNFYPREAKVQWKVDNALQSGNSQESVTEQDSKDSTYSLSSTLTLSKADYEKHKVYACEVTHQGLSSPVTKSFNRGECGGGGSGGGGSDKTHTCPPCPAPEAAGGPSVFLFPPKPKDTLMISRTPEVTCVVVDVSHEDPEVKFNWYVDGVEVHNAKTKPREEQYNSTYRVVSVLTVLHQDWLNGKEYKCKVSNKALGAPIEKTISKAKGQPREPQVCTLPPSRDELTKNQVSLSCAVKGFYPSDIAVEWESNGQPENNYKTTPPVLDSDGSFFLVSKLTVDKSRWQQGNVFSCSVMHEALHNHYTQKSLSLSPGKGGGGSGGGGSEVQLLESGGGLVQPGGSLRLSCAASGYSFTGYYIHWVRQAPGKGLEWVGRVIPNAGGTSYNQKFKGRFTISVDNSKNTAYLQMNSLRAEDTAVYYCAREGIYWWGQGTTVTVSSASTKGPSVFPLAPSSKSTSGGTAALGCLVKDYFPEPVTVSWNSGALTSGVHTFPAVLQSSGLYSLSSVVTVPSSSLGTQTYICNVNHKPSNTKVDKKVEPKSCGGGGSGGGGSGGGSGGGGSEIVLTQSPGTLSLSPGERATLSCRASQSVTSSYLAWYQQKPGQAPRLLINVGSRRATGIPDRFSGSGSGTDFTLTISRLEPEDFAVYYCQQGIMLPPTFGQGTKVEIKSSASTKGPSVFPLAPSSKSTSGGTAALGCLVKDYFPEPVTVSWNSGALTSGVHTFPAVLQSSGLYSLSSVVTVPSSSLGTQTYICNVNHKPSNTKVDKKVEPKSC
notes: 2+1 contorsbody; IgG1 Fc knob/hole, P329G LALA
